Tests used:
[1] = target: MCPyV common T antigen (CT; shared N-terminal domain of LT and ST) peptide on HLA-A*03:01 (human); assay: IFNγ ELISA
[2] = target: MCPyV large T antigen (LT) peptide on HLA-A*03:01 (human); assay: IFNγ ELISA; conditions: chains alpha TRAV3*00 CDR3:beta TRBV4-3*00 CDR3
[3] = chains alpha TRAV12-1*00 CDR3:beta TRBV19*00 CDR3

Binder	EC50 of peptide [1, 3]	other results
TCR clonotype 2 specific for MCPyV CT AA 32–40 (subject 1233) (peptide) chain 1: CVVNNNNNDMRF chain 2: CASVSGQGVSPLHF	0.0236 µg/mL	–
TCR clonotype 1 specific for MCPyV LT AA 95–103 (subject 1233) (peptide) chain 1: CAVRALGNAGNMLTF chain 2: CASSPNPQGANMDTQYF	–	EC50 of peptide [2]: 0.0019 µg/mL
TCR clonotype 3 specific for MCPyV CT AA 32–40 (subject 1233) (peptide) chain 1: CAGARNDYKLSF chain 2: CATSRDGAGLVNQPQHF	–	EC50 of peptide ([1]; chains alpha TRAV25*00 CDR3:beta TRBV15*00 CDR3): 0.0234 µg/mL
TCR clonotype 1 specific for MCPyV CT AA 32–40 (subject 1233) (peptide) chain 1: CVVNGNNNDMRF chain 2: CASSQGFGANVLTF	0.0076 µg/mL	–

Reference: paper PMC7196523
